One series has as its system MIA PaCa-2 (−) cells. As to the kind of experiment: Cell binding assay, MIA PaCa-2. Conditions: 1 h, 37 °C, γ-counter, n = 3. Type of series: cell-based. The text has this: (§1) Binding to cells with minimal to no expression of integrin αvβ6 was low at 4.4 ± 0.1% to DX3puro cells and 7.9 ± 0.4% to pancreatic MIA PaCa-2 cells. Binding of [^64Cu]PDC-1 to DX3puroβ6 (+) and BxPC-3 (+) was reduced by adding increasing amounts of DOTA-PDC-1, illustrating that the αvβ6-selective uptake could be blocked (Figure S3). Internalization of [^64Cu]-PDC-1 into cells was high with >50% of the bound radioactivity internalized for all cells expressing the integrin αvβ6. In comparison, cell binding of [^64Cu]2 to DX3puroβ6 (+) cells was 58.8 ± 2.3, and 3.3 ± 0.4% to the DX3puro (−) cells.
(§2) Cell binding and internalization assay. Binding and internalization were determined as previously described. […] The fraction of bound radioactivity was determined with a γ-counter (by measuring cell pellet and combined supernatants). To determine the fraction of internalized radioactivity, the cells were re-pelleted, and re-suspended in acidic wash buffer (0.2 M sodium acetate, 0.5 M sodium chloride, pH = 2.5, 300 μL, 4 °C, 5 min) to release surface bound activity, followed by a wash with PBS (300 μL). The internalized fraction was determined with a γ-counter (cell pellet vs. radioactivity released into supernatant). A Wizard 1470 or Wizard 2 2470 automatic γ-counter (Perkin-Elmer, Waltham, MA) was used to measure radioactivity samples. […]

The test system of the next series is DX3puro (−) cells. As to the kind of experiment: Cell binding assay, DX3puro. Type of series: cell-based. Conditions: 1 h, 37 °C, γ-counter, n = 3.
Excerpt: as §1, §2

Series [1] is described as follows: Blocking biodistribution, paired DX3puroβ6/DX3puro model. Type of series: in vivo, mice. Particulars: female, athymic nude, mouse, iv, total radioactivity, 4 h p.i., DOTA-2 (50 mg/kg, 205 nmol) i.v. 10 min prior, γ-counter, mean ± SD, n = 2. As to the method: Aliquots of the formulated [^64Cu]PDC-1 in isotonic 0.9% saline (4.81–5.74 MBq, 1.7–2.1 μg, 0.26–0.31 nmol, 100 μL, pH 7.2) were injected i.v. as described above. Following the conscious uptake period, the mice were anesthetized (5% isoflurane), euthanized, and dissected (n ≥ 3/model/time point [4, 24, and 48 h]; the 48 h time point also included the imaging animals sacrificed after the PET scans). Tissues were collected, washed, weighed, and radioactivity measured in a γ-counter. Calibrated, decay-corrected radioactivity was expressed as the percentage of injected dose per gram of tissue (% ID/g). Data are reported as mean ± SD. The mean weights and standard deviation of the DX3puroβ6/DX3puro paired tumor model biodistribution mice were 24.3 ± 1.4 g at 4 h, 28.2 ± 2.9 g at 24 h, and 27.7 ± 2.6 g at 48 h. The mean weights and standard deviation of the BxPC-3 tumor model biodistribution mice were 25.1 ± 1.9 g at 4 h, 27.0 ± 1.1 g at 24 h and 27.1 ± 3.2 g at 48 h. For in vivo blocking studies, DOTA-2 (50 mg/kg, 205 nmol, 1.4 mg in 100 μL 0.9% saline) was injected i.v. into two animals/tumor model 10 min prior to [^64Cu]PDC-1. The animals were sacrificed after 4 h, tissues collected, washed, weighed, and radioactivity measured in a γ-counter. The mean weights and standard deviation for the blocking mice were 24.6 ± 0 and 27.9 ± 0.3 g for the DX3puroβ6/DX3puro paired and BxPC-3 tumor models, respectively.
Blocking biodistribution data of [64Cu]PDC-1 in paired DX3puroβ6/DX3puro and BxPC-3 tumor models.
Tumor Model DX3puroβ6/DX3puro BxPC-3
Table S6. Blocking biodistribution data of [ 64Cu]PDC-1 in paired DX3puroβ6/DX3puro and BxPC-3 tumor
models. Tissue uptake is expressed as the mean of the percentage of injected dose per gram of tissue ±
SD (n = 2/model, n/a = not applicable. P = 0.53 for DX3puroβ6 vs. DX3puro; P = 0.52 for BxPC-3 vs.

The next series relates to BxPC-3 (+) cells. As to the kind of experiment: Cell binding assay, BxPC-3. Type of series: cell-based. Particulars: 1 h, 37 °C, γ-counter, n = 3.
Excerpt: as §1, §2

Series [2] relates to cells expressing the integrin αvβ6. As to the kind of experiment: Internalization assay. Type of series: cell-based. Conditions: all cells expressing the integrin αvβ6; acidic wash pH 2.5; γ-counter.
Excerpt: as §1, §2

For another series, the system named is DX3puroβ6 (+) cells. Description: Cell binding assay, DX3puroβ6. Type of series: cell-based. Particulars: 1 h, 37 °C, γ-counter, n = 3.
Excerpt: as §1, §2

SMILES strings stand for the structures. Where two headings read alike, the source gives them in different places.

With `CC[C@H](C)[C@@H]([C@@H](CC(=O)N1CCC[C@H]1[C@H](OC)[C@@H](C)C(=O)N[C@H](C)[C@@H](O)c1ccccc1)OC)N(C)C(=O)[C@@H](NC(=O)[C@H](C(C)C)N(C)C(=O)OCc1ccc(NC(=O)[C@H](CCCNC(N)=O)NC(=O)[C@@H](NC(=O)CCOCCOCCNC(=O)CCN2C(=O)CC(SC[C@H](NC(=O)CN3CCN(CC(=O)O)CCN(CC(=O)O)CCN(CC(=O)O)CC3)C(=O)NCCOCCOCCOCCOCCOCCOCCOCCOCCOCCOCCOCCOCCOCCOCCOCCOCCOCCOCCOCCOCCOCCOCCOCCOCCOCCOCCOCCOCCC(=O)N[C@@H](CC(N)=O)C(=O)N[C@@H](C)C(=O)N[C@H](C(=O)N3CCC[C@H]3C(=O)N[C@@H](CC(N)=O)C(=O)N[C@@H](CC(C)C)C(=O)N[C@@H](CCCNC(=N)N)C(=O)NCC(=O)N[C@@H](CC(=O)O)C(=O)N[C@@H](CC(C)C)C(=O)N[C@@H](CCC(N)=O)C(=O)N[C@H](C(=O)N[C@@H](CC(C)C)C(=O)N[C@@H](C)C(=O)N[C@@H](CCC(N)=O)C(=O)N[C@@H](CCCNC(=N)N)C(=O)N[C@H](C(=O)N[C@@H](C)C(=O)N[C@@H](CCCNC(=N)N)C(=O)N[C@H](C(=O)NCCOCCOCCOCCOCCOCCOCCOCCOCCOCCOCCOCCOCCOCCOCCOCCOCCOCCOCCOCCOCCOCCOCCOCCOCCOCCOCCOCCOCCC(N)=O)[C@@H](C)O)C(C)C)C(C)C)C(C)C)C2=O)C(C)C)cc1)C(C)C` (stereo partly shown) [[^64Cu]PDC-1, metal not drawn], the Cell binding with MIA PaCa-2 (−) cells came out at 7.9 ± 0.4%; with DX3puro (−) cells it was 4.4 ± 0.1%; in the series with BxPC-3 (+) cells, 62.0 ± 1.0%; in the series on DX3puroβ6 (+) cells, 67.0 ± 2.3%. For the same compound, the tissue uptake at 4 h in series [1] (DX3puro (αvβ6 −) tumor, read-out: Tumor (αvβ6 −) DX3puro uptake, blocked) is 0.42 ± 0.04 %ID/g; in series [1] (DX3puroβ6 (αvβ6 +) tumor, read-out: Tumor (αvβ6 +) DX3puroβ6 uptake, blocked), 0.39 ± 0.04 %ID/g; in series [1] (blood, read-out: Blood uptake, blocked), 0.08 ± 0.02 %ID/g; in series [1] (bone, read-out: Bone uptake, blocked), 0.1 ± 0.03 %ID/g; in series [1] (brain, read-out: Brain uptake, blocked) it was 0.02 %ID/g; in series [1] (gall bladder, read-out: Gall Bladder uptake, blocked) it was 0.28 ± 0.4 %ID/g. Moreover, the tissue uptake at 4 h in series [1] (heart, read-out: Heart uptake, blocked) came to 0.17 ± 0.03 %ID/g; in series [1] (kidney, read-out: Kidney uptake, blocked), 36.4 ± 5.43 %ID/g; in series [1] (large intestines, read-out: Large Intestines uptake, blocked), 0.51 ± 0.1 %ID/g; in series [1] (liver, read-out: Liver uptake, blocked), 1.39 ± 0.45 %ID/g; in series [1] (lung, read-out: Lung uptake, blocked) it was 0.39 ± 0.09 %ID/g; in series [1] (muscle, read-out: Muscle uptake, blocked), 0.04 %ID/g. Also, the tissue uptake at 4 h came out at 0.08 ± 0.01 %ID/g in series [1] (pancreas, read-out: Pancreas uptake, blocked); 0.29 ± 0.02 %ID/g in series [1] (skin, read-out: Skin uptake, blocked); 0.36 ± 0.02 %ID/g in series [1] (small intestines, read-out: Small Intestines uptake, blocked); 0.19 ± 0.01 %ID/g in series [1] (spleen, read-out: Spleen uptake, blocked); 0.27 ± 0.06 %ID/g in series [1] (stomach, read-out: Stomach uptake, blocked). Besides, the “Internalization, fraction of the bound radioactivity internalized” value in series [2] is recorded as more than 50%.

The values above are taken from PMC10388305, “Synthesis and Evaluation of a Monomethyl Auristatin E—Integrin αvβ6 Binding Peptide–Drug Conjugate for Tumor Targeted Drug Delivery” (Journal of Medicinal Chemistry, 2023).
